# Results reported in US20060159681A1 (FUNCTIONAL NEUROSCIENCE, published 2006).
# B1: FLAG-BAG5(DARA) (other, not shown: small tags and cut ends)
# chain: MDMGNQHPSISRLQEIQKEVKSVEQQVIGFSGLSDDKNYKKLERILTKQLFEIASVDTEGKGDIQQAAKRAAQETERLLKELEQNANHPHRIEIQNIFEEAQSLVREKIVPFYNGGNCVTDEFEEGIQDIILRLTHVKTGGKISLRKARYHTLTKICAVQEIIEDCMKKQPSLPLSEDAHPSVAKINFVMCEVNKARGVLIALLMGVNNNETCRHLSCVLSGLIADLAALDVCGRTEIRNYAREVVEDINKLLKYLDLEEEADTTKAFDLRQNHSILKIEKVLKRMREIKNELLQAQNPSELYLSSKTELQGLIGQLAEVSLEKNPCIREAARRAVIEVQTLITYIDLKEALEKRKLFACEEHPSHKAVWNVLGNLSEIQGEVLSFDGNRTDKNYIRLEELLTKQLLALAAVDPQGEEKCKAAAKQAVRLAQNILSYLDLKSDEWEY
# notes: Expressed by transfection in HEK293T cells
# B2: GST-BAG5(DARA) (other, not shown: a dimerising Fc or GST; large carriers; small tags and cut ends)
# chain: B1 chain
# notes: also called mutant BAG5(DARA)
# Columns and labels:
# Hsp70 = Hsp70 (UniProt P0DMV8 1-641); assay: co-immunoprecipitation from transfected HEK293T lysate
# Hsp70, sequence (P0DMV8 whole entry, the tested form may be a part): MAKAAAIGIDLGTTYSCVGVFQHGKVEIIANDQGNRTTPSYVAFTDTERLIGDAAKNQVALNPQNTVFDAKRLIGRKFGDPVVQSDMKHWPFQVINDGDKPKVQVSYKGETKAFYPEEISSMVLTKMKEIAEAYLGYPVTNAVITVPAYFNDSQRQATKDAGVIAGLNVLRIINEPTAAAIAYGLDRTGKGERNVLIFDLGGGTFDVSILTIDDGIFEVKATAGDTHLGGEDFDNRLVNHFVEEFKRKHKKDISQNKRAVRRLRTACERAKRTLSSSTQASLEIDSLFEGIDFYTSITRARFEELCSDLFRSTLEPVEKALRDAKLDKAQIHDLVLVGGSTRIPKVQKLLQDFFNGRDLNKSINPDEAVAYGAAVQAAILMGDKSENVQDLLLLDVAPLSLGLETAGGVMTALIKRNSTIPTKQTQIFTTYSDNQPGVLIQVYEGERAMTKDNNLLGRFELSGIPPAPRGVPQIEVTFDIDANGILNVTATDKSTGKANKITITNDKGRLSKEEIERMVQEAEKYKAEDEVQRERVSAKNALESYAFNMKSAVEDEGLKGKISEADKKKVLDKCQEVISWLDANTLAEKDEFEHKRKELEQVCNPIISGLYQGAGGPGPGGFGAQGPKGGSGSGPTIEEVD
# Method: (§1) Samples were harvested in lysis-buffer (50 mM Tris-HCl pH 7.4, 150 mM NaCl, 2 mM EDTA, 1% Triton X-100) supplemented with protease inhibitors (Roche). For complete solubilization of the pellet in synphilin ubiquitinylation experiments boiling lysis-buffer with 1% SDS was used. IPs were performed overnight followed by incubation with Protein G sepharose beads (Amersham). PDAs were performed with equimolar amounts of GST- and His-fusion proteins for 1 hr (4° C.). Beads were washed once with lysis-buffer and three times with PBS (pH 7.4).
# Therefore, it was tested whether BAG5 may associate with itself by co-transfecting N-terminus GFP-tagged BAG5 (GFP-BAG5) with FLAG-BAG5 in HEK293T cells. […] Indeed, both GFP-BAG5 and GFP-BAG5(DARA) co-immunoprecipitated with FLAG-BAG5(DARA) (FIG. 3E, lane 4 and 6, respectively). It was also confirmed that Hsp70 co-immunoprecipitated with FLAG-BAG5 and not FLAG-BAG5(DARA) (FIG. 3E, lanes 1, 3 and 5 vs. 2, 4 and 6). […] Similar to results from FIG. 3E, GST-BAG5 and GST-BAG5(DARA) interacted with both GFP-BAG5 and GFP-BAG5(DARA), whereas only GST-BAG5 interacted with Hsp70 (FIG. 3F). […] Therefore complexes of BAG5 which contained BAG5(DARA) were unable to bind Hsp70 and inhibited BAG5 activity.
# [1] = target: T1, endogenous Hsp70 in human brain lysate (human, UniProt P0DMV8 2-641); assay: GST pull-down from human brain SNpc lysate
# T1 construct: Native protein in tissue lysate, detected with a monoclonal anti-Hsp70 antibody
# T1 sequence (P0DMV8 2-641): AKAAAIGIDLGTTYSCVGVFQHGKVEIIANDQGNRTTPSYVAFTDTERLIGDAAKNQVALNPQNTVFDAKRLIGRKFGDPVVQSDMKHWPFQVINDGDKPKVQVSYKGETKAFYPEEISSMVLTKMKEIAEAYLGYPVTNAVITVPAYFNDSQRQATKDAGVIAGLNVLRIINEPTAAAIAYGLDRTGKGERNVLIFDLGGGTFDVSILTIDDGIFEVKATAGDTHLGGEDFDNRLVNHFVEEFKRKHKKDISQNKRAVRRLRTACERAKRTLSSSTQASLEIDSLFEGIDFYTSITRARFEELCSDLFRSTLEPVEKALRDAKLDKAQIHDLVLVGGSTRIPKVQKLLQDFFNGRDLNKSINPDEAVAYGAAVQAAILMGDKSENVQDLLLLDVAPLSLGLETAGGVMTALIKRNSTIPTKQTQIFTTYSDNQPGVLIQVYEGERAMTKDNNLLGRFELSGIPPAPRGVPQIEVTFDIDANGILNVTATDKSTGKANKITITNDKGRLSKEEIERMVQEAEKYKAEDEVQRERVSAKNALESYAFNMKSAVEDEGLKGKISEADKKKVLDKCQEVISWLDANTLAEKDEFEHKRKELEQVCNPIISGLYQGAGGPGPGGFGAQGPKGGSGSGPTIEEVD
# His-Hsp70 = target: T2, His-Hsp70 (human, UniProt P0DMV8 1-641); assay: in vitro GST pull-down
# T2 construct: Purified from E. coli (pDEST17) for the pull-down assays; also called full-length Hsp70; not shown: N-terminal hexa-histidine tag from a pDEST vector
# T2 sequence (P0DMV8 whole entry): as the sequence (P0DMV8 whole entry, the tested form may be a part) above
# Method: as §1
# To further examine the nature of the association between parkin, Hsp70 and BAG5, in vitro pull-down experiments using GST-Hsp70, GST-BAG5, or GST-BAG5(DARA) with recombinant N-terminus His-tagged parkin were used. […] Thus, BAG5 interacted directly with parkin in the absence of Hsp70.
binder,measurement,setting,value
B1,binding result,Hsp70,no binding
B2,binding result,[1],no binding
same,binding result,His-Hsp70,no binding
